Target: long form of human LepR (LepRb), full length, on HEK293T cells (human) (UniProt P48357)
Experiment: flow cytometry on cells

Chain of UniProt P48357 (P48357 22-1165): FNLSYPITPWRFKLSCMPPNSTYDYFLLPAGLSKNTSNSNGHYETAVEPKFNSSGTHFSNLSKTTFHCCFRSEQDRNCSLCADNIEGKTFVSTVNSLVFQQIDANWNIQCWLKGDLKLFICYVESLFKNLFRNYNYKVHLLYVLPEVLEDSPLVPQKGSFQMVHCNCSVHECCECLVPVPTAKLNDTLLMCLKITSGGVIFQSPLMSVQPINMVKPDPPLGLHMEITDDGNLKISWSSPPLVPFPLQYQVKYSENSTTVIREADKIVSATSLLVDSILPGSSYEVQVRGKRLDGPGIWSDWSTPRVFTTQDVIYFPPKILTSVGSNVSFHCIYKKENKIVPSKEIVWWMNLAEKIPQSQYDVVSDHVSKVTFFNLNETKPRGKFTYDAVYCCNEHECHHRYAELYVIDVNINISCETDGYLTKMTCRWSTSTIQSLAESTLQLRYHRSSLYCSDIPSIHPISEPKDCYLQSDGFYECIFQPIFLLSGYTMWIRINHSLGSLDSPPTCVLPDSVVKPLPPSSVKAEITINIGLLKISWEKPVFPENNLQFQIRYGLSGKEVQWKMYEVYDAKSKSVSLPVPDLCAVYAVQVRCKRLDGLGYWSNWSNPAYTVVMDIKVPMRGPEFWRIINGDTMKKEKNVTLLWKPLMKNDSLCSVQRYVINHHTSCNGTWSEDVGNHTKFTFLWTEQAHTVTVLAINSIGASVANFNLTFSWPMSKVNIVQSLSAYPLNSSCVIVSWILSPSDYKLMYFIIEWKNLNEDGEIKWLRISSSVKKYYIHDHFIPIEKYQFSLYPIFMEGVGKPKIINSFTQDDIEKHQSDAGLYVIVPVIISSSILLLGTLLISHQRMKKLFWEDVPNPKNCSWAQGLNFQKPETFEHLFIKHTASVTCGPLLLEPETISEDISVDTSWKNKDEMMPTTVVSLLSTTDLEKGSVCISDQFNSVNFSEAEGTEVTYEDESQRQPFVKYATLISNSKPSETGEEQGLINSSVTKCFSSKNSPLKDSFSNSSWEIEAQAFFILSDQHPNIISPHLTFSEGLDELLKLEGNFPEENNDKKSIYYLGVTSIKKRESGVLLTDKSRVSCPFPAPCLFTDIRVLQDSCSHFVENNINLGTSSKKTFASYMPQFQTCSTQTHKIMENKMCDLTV

Kd: 2.2 nM
Substance: FITC-labeled rASRA (natural protein)
